# Assay results taken from patent publication US11419921B2, “Methods of treating neurological disorders” (EnClear Therapies, Inc., priority 2018, dated 2022).
# B1: Clostripain: sulfhydryl protease cleaving at the C-terminus of arginine residues; in Table 23 also immobilized on agarose resin (protein)
# chain: NKNQKVTIMYYCDADNNLEGSLLNDIEEMKTGYKDSPNLNLIALVDRSPRYSSDEKVLGEDFSDTRLYKIEHNKANRLDGKNEFPEISTTSKYEANMGDPEVLKKFIDYCKSNYEADKYVLIMANHGGGAREKSNPRLNRAICWDDSNLDKNGEADCLYMGEISDHLTEKQSVDLLAFDACLMGTAEVAYQYRPGNGGFSADTLVASSPVVWGPGFKYDKIFDRIKAGGGTNNEDDLTLGGKEQNFDPATITNEQLGALFVEEQRDSTHANGRYDQHLSFYDLKKAESVKRAIDNLAVNLSNENKKSEIEKLRGSGIHTDLMHYFDEYSEGEWVEYPYFDVYDLCEKINKSENFSSKTKDLASNAMNKLNEMIVYSFGDPSNNFKEGKNGLSIFLPNGDKKYSTYYTSTKIPHWTMQSWYNSIDTVKYGLNPYGKLSWCKDGQDPEINKVGNWFELLDSWFDKTNDVTGGVNHYQW
# Tested on: (GR)10
# Assay: Cleavage of (GR)10 by enzymes in solution (PBS with CaCl2 and MgCl2), LC/MS of GR repeats
# Format: biochemical
# Conditions: for (GR)1 concentration / (GR)2 concentration / (GR)4 concentration / (GR)6 concentration / (GR)8 concentration / (GR)10 concentration: (GR)10 50 μM; for (GR)1 / (GR)2 / (GR)3 / (GR)4 / (GR)5 / (GR)6 / (GR)8 / (GR)10: PBS, normalized
# Protocol: • (GR)10 dipeptide (also (GR)8, (GR)6, (GR)4, (GR)2) were synthetized by solid-phase synthesis by CanPeptide; All peptides are uncapped and supplied lyophilized with TFA as counter ions. Purity was always above 95%. • Buffer: PBS buffer containing CaCl2 and MgCl2. • Stock solution of enzyme (e.g., 10 mg/mL) (prepared per manufacturer instructions) in PBS. Activators added as necessary. • Working solution of protein of the desired concentration (e.g., 100 μg/mL) prepared immediately before use by diluting the stock solution (e.g., 5 μL of 10 mg/mL stock solution) in PBS buffer (e.g., in 495 μL of PBS). Exemplary Procedure Using 50 μM Concentrations of (GR)10
# 25 μL of a 100 μM solution of (GR)10 was added to each well of a 96-well plate. 25 μL of a solution of enzyme (two times the desired final enzyme concentration) was added, and the plates were incubated at room temperature. At the specified time points (5 minutes, 10 minutes, 30 minutes, 60 minutes, and 180 minutes) 2.5 μL of a 10% TFA solution were added to stop the reaction. For the time 0 min well, the TFA was added to the well before addition of the enzyme. After last time point, all samples were further diluted with 150 μL of dilution solution. The quenched reaction mixtures were analyzed by LC/MS to determine the concentration of GR repeats of different lengths.
# The chromatography and mass spectrometry conditions utilized are shown in Table 2 and Table 3, respectively.
molecule,measurement,setting,value
B1,(GR)1 concentration,"enzyme 2.5 μg/mL, 0 min",BLQ
same,(GR)2 concentration,"enzyme 2.5 μg/mL, 0 min",BLQ
same,(GR)4 concentration,"enzyme 2.5 μg/mL, 0 min",BLQ
same,(GR)6 concentration,"enzyme 2.5 μg/mL, 0 min",BLQ
same,(GR)8 concentration,"enzyme 2.5 μg/mL, 0 min",0.7 µM
same,(GR)10 concentration,"enzyme 2.5 μg/mL, 0 min",39.7 µM
same,(GR)1 concentration,"enzyme 2.5 μg/mL, 5 min",25.6 µM
same,(GR)2 concentration,"enzyme 2.5 μg/mL, 5 min",8.7 µM
same,(GR)4 concentration,"enzyme 2.5 μg/mL, 5 min",6.7 µM
same,(GR)6 concentration,"enzyme 2.5 μg/mL, 5 min",3.6 µM
same,(GR)8 concentration,"enzyme 2.5 μg/mL, 5 min",2.2 µM
same,(GR)10 concentration,"enzyme 2.5 μg/mL, 5 min",5.4 µM
same,(GR)1 concentration,"enzyme 2.5 μg/mL, 10 min",35.3 µM
same,(GR)2 concentration,"enzyme 2.5 μg/mL, 10 min",14.0 µM
same,(GR)4 concentration,"enzyme 2.5 μg/mL, 10 min",9.8 µM
same,(GR)6 concentration,"enzyme 2.5 μg/mL, 10 min",4.3 µM
same,(GR)8 concentration,"enzyme 2.5 μg/mL, 10 min",1.8 µM
same,(GR)10 concentration,"enzyme 2.5 μg/mL, 10 min",2.3 µM
same,(GR)1 concentration,"enzyme 2.5 μg/mL, 30 min",72.9 µM
same,(GR)2 concentration,"enzyme 2.5 μg/mL, 30 min",36.8 µM
same,(GR)4 concentration,"enzyme 2.5 μg/mL, 30 min",7.5 µM
same,(GR)6 concentration,"enzyme 2.5 μg/mL, 30 min",1.4 µM
same,(GR)8 concentration,"enzyme 2.5 μg/mL, 30 min",BLQ
same,(GR)10 concentration,"enzyme 2.5 μg/mL, 30 min",BLQ
same,(GR)1 concentration,"enzyme 2.5 μg/mL, 60 min",148.6 µM
same,(GR)2 concentration,"enzyme 2.5 μg/mL, 60 min",62.1 µM
same,(GR)4 concentration,"enzyme 2.5 μg/mL, 60 min",1.9 µM
same,(GR)6 concentration,"enzyme 2.5 μg/mL, 60 min",BLQ
same,(GR)8 concentration,"enzyme 2.5 μg/mL, 60 min",BLQ
same,(GR)10 concentration,"enzyme 2.5 μg/mL, 60 min",BLQ
same,(GR)1 concentration,"enzyme 2.5 μg/mL, 120 min",325.0 µM
same,(GR)2 concentration,"enzyme 2.5 μg/mL, 120 min",BLQ
same,(GR)4 concentration,"enzyme 2.5 μg/mL, 120 min",BLQ
same,(GR)6 concentration,"enzyme 2.5 μg/mL, 120 min",BLQ
same,(GR)8 concentration,"enzyme 2.5 μg/mL, 120 min",BLQ
same,(GR)10 concentration,"enzyme 2.5 μg/mL, 120 min",BLQ
same,(GR)1 concentration,"enzyme 10 μg/mL, 0 min",BLQ
same,(GR)2 concentration,"enzyme 10 μg/mL, 0 min",BLQ
same,(GR)4 concentration,"enzyme 10 μg/mL, 0 min",BLQ
same,(GR)6 concentration,"enzyme 10 μg/mL, 0 min",BLQ
same,(GR)8 concentration,"enzyme 10 μg/mL, 0 min",0.6 µM
same,(GR)10 concentration,"enzyme 10 μg/mL, 0 min",37.9 µM
same,(GR)1 concentration,"enzyme 10 μg/mL, 5 min",99.0 µM
same,(GR)2 concentration,"enzyme 10 μg/mL, 5 min",51.8 µM
same,(GR)4 concentration,"enzyme 10 μg/mL, 5 min",5.4 µM
same,(GR)6 concentration,"enzyme 10 μg/mL, 5 min",0.6 µM
same,(GR)8 concentration,"enzyme 10 μg/mL, 5 min",BLQ
same,(GR)10 concentration,"enzyme 10 μg/mL, 5 min",0.8 µM
same,(GR)1 concentration,"enzyme 10 μg/mL, 10 min",145.9 µM
same,(GR)2 concentration,"enzyme 10 μg/mL, 10 min",62.2 µM
same,(GR)4 concentration,"enzyme 10 μg/mL, 10 min",1.8 µM
same,(GR)6 concentration,"enzyme 10 μg/mL, 10 min",BLQ
same,(GR)8 concentration,"enzyme 10 μg/mL, 10 min",BLQ
same,(GR)10 concentration,"enzyme 10 μg/mL, 10 min",BLQ
same,(GR)1 concentration,"enzyme 10 μg/mL, 30 min",336.9 µM
same,(GR)2 concentration,"enzyme 10 μg/mL, 30 min",BLQ
same,(GR)4 concentration,"enzyme 10 μg/mL, 30 min",BLQ
same,(GR)6 concentration,"enzyme 10 μg/mL, 30 min",BLQ
same,(GR)8 concentration,"enzyme 10 μg/mL, 30 min",BLQ
same,(GR)10 concentration,"enzyme 10 μg/mL, 30 min",BLQ
same,(GR)1 concentration,"enzyme 10 μg/mL, 60 min",340.3 µM
same,(GR)2 concentration,"enzyme 10 μg/mL, 60 min",BLQ
same,(GR)4 concentration,"enzyme 10 μg/mL, 60 min",BLQ
same,(GR)6 concentration,"enzyme 10 μg/mL, 60 min",BLQ
same,(GR)8 concentration,"enzyme 10 μg/mL, 60 min",BLQ
same,(GR)10 concentration,"enzyme 10 μg/mL, 60 min",BLQ
same,(GR)1 concentration,"enzyme 10 μg/mL, 120 min",355.8 µM
same,(GR)2 concentration,"enzyme 10 μg/mL, 120 min",BLQ
same,(GR)4 concentration,"enzyme 10 μg/mL, 120 min",BLQ
same,(GR)6 concentration,"enzyme 10 μg/mL, 120 min",BLQ
same,(GR)8 concentration,"enzyme 10 μg/mL, 120 min",BLQ
same,(GR)10 concentration,"enzyme 10 μg/mL, 120 min",BLQ
same,(GR)1,in solution - 5 min reaction,82.6 µM
same,(GR)2,in solution - 5 min reaction,106.2 µM
same,(GR)3,in solution - 5 min reaction,39.1 µM
same,(GR)4,in solution - 5 min reaction,28.6 µM
same,(GR)5,in solution - 5 min reaction,12.7 µM
same,(GR)6,in solution - 5 min reaction,8.4 µM
same,(GR)8,in solution - 5 min reaction,0.0 µM
same,(GR)10,in solution - 5 min reaction,12.4 µM
same,(GR)1,in solution - 60 min reaction,383.2 µM
same,(GR)2,in solution - 60 min reaction,0.0 µM
same,(GR)3,in solution - 60 min reaction,0.0 µM
same,(GR)4,in solution - 60 min reaction,0.0 µM
same,(GR)5,in solution - 60 min reaction,0.0 µM
same,(GR)6,in solution - 60 min reaction,0.0 µM
same,(GR)8,in solution - 60 min reaction,0.0 µM
same,(GR)10,in solution - 60 min reaction,0.0 µM
